Measured values from patent US20250154278A1 (JANUX THERAPEUTICS, published 2025).
Substitutions are numbered along the chain they refer to. In names and notes the source's numbering stands. Where two headings read alike, the source gives them in different places. Each block holds one binder with its values, some of them ahead of it.

Experiments:
[1] = biological target: T1, Human TROP2 full length, on tumor cells (HCT116, MDAMB231, NCI-H292) (human, UniProt P09758 31-323); test: cell-based or functional assay
T1 sequence: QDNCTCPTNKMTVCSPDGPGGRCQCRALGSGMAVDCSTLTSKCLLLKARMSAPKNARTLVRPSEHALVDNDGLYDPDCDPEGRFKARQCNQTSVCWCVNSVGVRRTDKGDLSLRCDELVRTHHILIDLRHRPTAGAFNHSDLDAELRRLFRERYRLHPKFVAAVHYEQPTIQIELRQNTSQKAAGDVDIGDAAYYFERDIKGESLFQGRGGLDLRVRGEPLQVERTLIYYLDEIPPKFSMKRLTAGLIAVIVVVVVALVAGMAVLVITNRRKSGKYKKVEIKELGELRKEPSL

[2] = biological target: T2, Human TROP2 ECD (31-274 AA), biotinylated (human, UniProt P09758 31-274, biotinylated (site not stated)); test: ELISA, immobilized TROP2, HRP secondary antibody
T2 construct: the entry is already residues 31-274; also called Human TROP2-biotin; hTROP2-Biotin
T2 sequence: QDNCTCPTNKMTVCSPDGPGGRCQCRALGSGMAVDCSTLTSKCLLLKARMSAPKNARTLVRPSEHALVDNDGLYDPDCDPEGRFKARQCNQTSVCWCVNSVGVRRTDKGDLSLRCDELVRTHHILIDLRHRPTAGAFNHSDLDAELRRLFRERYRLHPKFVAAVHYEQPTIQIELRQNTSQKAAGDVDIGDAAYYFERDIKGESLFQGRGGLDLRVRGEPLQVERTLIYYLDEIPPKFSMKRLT

[3] = biological target: T1, Human TROP2 full length, on tumor cells …; test: cell-based or functional assay; remark: listed apart in the source
[4] = biological target: T1, Human TROP2 full length, on tumor cells …; test: cell-based or functional assay; remark: listed apart in the source
[5] = biological target: T1, Human TROP2 full length, on tumor cells …; test: cell-based or functional assay; remark: listed apart in the source
[6] = biological target: T2, Human TROP2 ECD (31-274 AA), …; test: TROP2 binding ELISA; the table's head prints only 'EC50', the unit is that of the axis Log [TCE nM]
Cyno CD3 = biological target: T3, Cyno CD3 (Antigen was biotinylated for capture on neutravidin plates; the site of biotin and any tag are not stated.); test: Cyno CD3 binding ELISA
T3 construct: also called cynomolgus monkey CD3
T3 chain: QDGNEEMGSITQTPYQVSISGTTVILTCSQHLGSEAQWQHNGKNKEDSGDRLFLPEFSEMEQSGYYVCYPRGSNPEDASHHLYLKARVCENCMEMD

[7] = biological target: T4, human CD3 epsilon, biotinylated (human, UniProt P07766 23-126, limits assumed, biotinylated (site not stated)); test: Human CD3 binding ELISA
T4 construct: Printed in places as CD36, CD38, CD3c or CD3&; also called CD3e-bio; human CD3e-biotin
T4 sequence (P07766 23-126 limits assumed): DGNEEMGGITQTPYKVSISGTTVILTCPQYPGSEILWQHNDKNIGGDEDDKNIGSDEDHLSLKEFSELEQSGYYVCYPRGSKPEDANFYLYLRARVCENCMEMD

[8] = biological target: T2, Human TROP2 ECD (31-274 AA), …; test: TROP2 binding ELISA, biotinylated TROP2 on neutravidin plates
[9] = biological target: T4, human CD3 epsilon, biotinylated; test: ELISA, CD3e-biotin captured
[10] = biological target: T4, human CD3 epsilon, biotinylated; test: BLI, CD3e-biotin on sensor (summary)
[11] = biological target: T4, human CD3 epsilon, biotinylated; test: CD3 binding ELISA
[12] = biological target: T1, Human TROP2 full length, on tumor cells …; test: cell-based or functional assay; remark: listed apart in the source
[13] = biological target: T5, Cynomolgus monkey TROP2 full length, on recombinant HEK293 cells (cynomolgus monkey, UniProt P09758 31-323 (human entry)); test: cell-based or functional assay
T5 chain: T1 sequence with M32V, S63N, I200V, M262V, T268S

[14] = biological target: T1, Human TROP2 full length, on tumor cells …; test: cell-based or functional assay; remark: listed apart in the source
[15] = biological target: T2, Human TROP2 ECD (31-274 AA), …; test: BLI, human TROP2-biotin (10 nM) on sensor, 50 nM TCE

EC50 [2]: 7.3 nM
B1: TCE-4 (TROP2 Fab HC F108A TCE, scFv on the Fab LC) (bispecific antibody)
light: not shown
heavy: QVQLQQSGSELKKPGASVKVSCKASGYTFTNYGMNWVKQAPGQGLKWMGWINTYTGEPTYTDDFKGRFAFSLDTSVSTAYLQISSLKADDTAVYFCARGGFGSSYWYADVWGQGSLVTVSSASTKGPSVFPLAPSSKSTSGGTAALGCLVKDYFPEPVTVSWNSGALTSGVHTFPAVLQSSGLYSLSSVVTVPSSSLGTQTYICNVNHKPSNTKVDKKVEPKSC
notes: Description names HisTag AviTag on the HC
TCE Cytotoxicity EC50, H292 + CD8+ T cells [1]: 0.0004 nM | TCE Cytotoxicity EC50, HCT116 + CD8+ T cells [1]: 0.0183 nM | TCE Cytotoxicity EC50, MDAMB231 + CD8+ T cells [1]: 0.0063 nM

B2: TCE-9 (anti-CD3 scFv wt + linker + anti-TROP2 HC wt; anti-TROP2 LC wt) (bispecific antibody)
light: DIQLTQSPSSLSASVGDRVSITCKASQDVSIAVAWYQQKPGKAPKLLIYSASYRYTGVPDRFSGSGSGTDFTLTISSLQPEDFAVYYCQQHYITPLTFGAGTKVEIKRTVAAPSVFIFPPSDEQLKSGTASVVCLLNNFYPREAKVQWKVDNALQSGNSQESVTEQDSKDSTYSLSSTLTLSKADYEKHKVYACEVTHQGLSSPVTKSFNRGEC
heavy: not shown
H292 Cytotox EC50 [3]: 0.0007 nM | H292 Cytotox EC50 [4]: 0.0007 nM | H292 Cytotox EC50 [5]: 0.0007 nM

EC50 [6]: 0.893 nM
B3: TCE-45 (anti-CD3 scFv F104A, anti-TROP2 HC D109A) (bispecific antibody)
light: B2 light
heavy: not shown

EC50 (Cyno CD3): 0.671 nM | EC50 [7]: 0.761 nM | EC50 [8]: 1.02 nM
B4: TCE-39 (anti-CD3 scFv F104A, anti-TROP2 HC F108A) (bispecific antibody)
light: B2 light
heavy: not shown

EC50 [2]: 1.4 nM
B5: TCE-7 (TROP2 Fab HC F108A TCE, scFv on the Fab HC) (bispecific antibody)
light: B2 light
heavy: not shown
notes: Description names a HisTag on the HC
TCE Cytotoxicity EC50, H292 + CD8+ T cells [1]: 0.0056 nM | TCE Cytotoxicity EC50, HCT116 + CD8+ T cells [1]: 0.206 nM | TCE Cytotoxicity EC50, MDAMB231 + CD8+ T cells [1]: 0.0478 nM

EC50 [9]: 0.6 nM | CD3 t1/2 [10]: 39 s
B6: TCE-34 (anti-CD3 scFv F240A, anti-TROP2 wt) (bispecific antibody)
light: B2 light
heavy: not shown
H292 Cytotox EC50 [4]: 0.02 nM

EC50 [11]: 0.595 nM | EC50 [6]: 1.38 nM
B7: TCE-44 (bispecific antibody)
light chain (anti-TROP2 LC wt): B2 light
heavy chain (anti-CD3 scFv H101A + linker + anti-TROP2 D109A HC): not shown
notes: also called anti-CD3 scFv (H101A) + linker + anti-TROP2 (D109A) HC; anti-TROP2 LC wt

EC50 (Cyno CD3): 0.482 nM | EC50 [7]: 0.531 nM
B8: TCE-40 (anti-CD3 scFv F240A, anti-TROP2 HC F108A) (bispecific antibody)
light: B2 light
heavy: not shown
HCT116 Cytotox EC50 [12]: > 3 nM | CynoTROP2 + HEK293 cells Cytotox EC50 [13]: 0.005 nM

Kd [15]: 1.22 nM
B9: TCE-41 (anti-CD3 scFv with P41S, A49G, N87S and further mutations as in TCE-35; anti-TROP2 HC F108A) (bispecific antibody)
light: B2 light
heavy: EVQLVESGGGLVQPGGSLKLSCAASGFTFNKYAMNWVRQASGKGLEWVGRIRSKYNNYATYYADSVKDRFTISRDDSKNTAYLQMNSLKTEDTAVYYCVRHGNFGNSYISYWAYWGQGTLVTVSSGGGGSGGGGSGGGGSQTVVTQEPSFSVSPGGTVTLTCRSSTGAVTSGNYANWVQQTPGQAPRGLIGGTKFLAPGVPDRFSGSILGNKAALTITGAQADDESDYYCVLWYSNRWVFGGGTKLTVLGGGGSQVQLQQSGSELKKPGASVKVSCKASGYTFTNYGMNWVKQAPGQGLKWMGWINTYTGEPTYTDDFKGRFAFSLDTSVSTAYLQISSLKADDTAVYFCARGGFGSSYWYADVWGQGSLVTVSSASTKGPSVFPLAPSSKSTSGGTAALGCLVKDYFPEPVTVSWNSGALTSGVHTFPAVLQSSGLYSLSSVVTVPSSSLGTQTYICNVNHKPSNTKVDKKVEPKSC
HCT116 Cytotox EC50 [12]: 0.073 nM | H292 Cytotox EC50 [14]: 0.003 nM
